The target of test [1] is Firefly Luciferase, heat-aggregated (Firefly) [luciferase: P08659].
For test [2], the target named is ClpG N1 core domain (N1∗), residues 1 to 46 (Pseudomonas aeruginosa, 15N (13C) isotope labelled for NMR). Briefly: NMR titration; unlabeled peptide 134 titrated to 15N-labeled N1∗ (80 μM N1∗, up to 240 μM peptide), 1H,15N-HSQC chemical shift perturbations, 298 K, 50 mM NaH2PO4 pH 6.5, 50 mM KCl, 2 mM DTT. The conditions noted are these: both partners purified.

Firefly Luciferase, heat-aggregated (Firefly) [luciferase: P08659], sequence (P08659 whole entry, the tested form may be a part): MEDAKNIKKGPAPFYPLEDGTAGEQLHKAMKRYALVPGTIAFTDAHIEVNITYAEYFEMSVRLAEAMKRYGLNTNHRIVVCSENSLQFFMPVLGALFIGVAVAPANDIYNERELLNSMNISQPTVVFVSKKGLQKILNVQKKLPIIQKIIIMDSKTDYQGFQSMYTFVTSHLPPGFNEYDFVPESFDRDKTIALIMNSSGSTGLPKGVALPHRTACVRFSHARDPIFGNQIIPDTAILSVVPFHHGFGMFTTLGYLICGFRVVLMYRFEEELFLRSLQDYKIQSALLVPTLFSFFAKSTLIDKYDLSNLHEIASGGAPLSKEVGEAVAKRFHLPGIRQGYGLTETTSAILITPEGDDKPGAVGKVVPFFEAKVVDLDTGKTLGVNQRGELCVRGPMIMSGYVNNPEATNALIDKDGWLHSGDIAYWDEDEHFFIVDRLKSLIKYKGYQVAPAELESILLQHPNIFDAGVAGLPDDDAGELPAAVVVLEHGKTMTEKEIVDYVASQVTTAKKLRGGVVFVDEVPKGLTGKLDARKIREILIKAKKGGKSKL

On to ClpG WT (P. aeruginosa ClpGGI) (enzyme), for which the stimulation of ClpG ATPase activity by aggregated Luciferase in test [1] is 1.4 fold. As a reminder, the Kd is a measure of binding affinity in units of concentration. Consider CWFLRYLKASKVPLN (Unlabeled peptide) [Peptide 134], for which the Kd in test [2] was > 50 µM.
